This is an account of results in paper PMC7949036, “Zinc transporter mutations linked to acrodermatitis enteropathica disrupt function and cause mistrafficking” (The Journal of Biological Chemistry, 2021).

Changes are numbered by the printed parent chain. Numbers in names are those of the source.

Series [1] concerns the molecule itself. The series can be described thus: SEC; Superdex 200 10/300GL, 10 mM HEPES pH 7.3, 100 mM NaCl; apparent molecular weight estimated from protein standards; native purified protein.
Series [2] in a line: cell-based 65Zn uptake, HEK293T. To be noted: glycan lost; control: wild type.
The nature of series [3]: confocal immunofluorescence, FITC anti-HA, nonpermeabilized cells. To be noted: glycan lost; control: wild type.

B1: extracellular domain of ZIP4 from Pteropus alecto (black fruit bat), wild type (domain or fragment, UniProt L5KLU7 36-322, looked up)
chain: SGQGALDRVALGGLLNTLAARVHCTSGPCGKCLSVDDLLALGRPEEPGHLARLSAAAALYLSDPEGTCEDIRAGRWASRADHLLALLEGPKALAPGLSRLLQRIQAQTTGQPSAGEACVDPPQLLREAGVAGAPGSPGPVLATLLEHVGRGSCFHTLPTPQYFVDFVFQQSHGNTPNISVAELAALMQRLGVGGVTETHSDHHHQEKRVNRQGPTPLTAPNSSSDTWDTVCLSARDVMAVYGLSEQTGVTPEAWAQLSPALLQQQLSGACSPQPSHPAQNQLSQAEK
notes: ZIP4 (zinc transporter, SLC39A family) of Pteropus alecto, extracellular domain, residues 36-322 of ELK11751; His6 tag removed by thrombin; also called pZIP4-ECD; wild-type pZIP4-ECD; source: E. coli Origami B(DE3) pLysS, purified (Ni-NTA, Mono-Q, SEC); not shown: His6, N-terminal, cleaved
As a reminder, the stoichiometry N is a count of units in the complex or per binding partner. Turning to B1, the “stoichiometry N” value in series [1] was 2.

B2: pZIP4-ECD C64R variant (domain or fragment, Pteropus alecto, UniProt L5KLU7 36-322, looked up)
chain: B1 chain with C29R
notes: ZIP4 of Pteropus alecto, extracellular domain, residues 36-322 of ELK11751, with C64R (equivalent to C62R of human ZIP4); source: E. coli Origami B(DE3) pLysS, purified (Ni-NTA, Mono-Q, SEC); not shown: His6, N-terminal, cleaved
Take B2: the binding result in series [1] was “binds”.

B3: pZIP4-ECD P193L variant (domain or fragment, Pteropus alecto, UniProt L5KLU7 36-322, looked up)
chain: B1 chain with P158L
notes: ZIP4 of Pteropus alecto, extracellular domain, residues 36-322 of ELK11751, with P193L (equivalent to P200L of human ZIP4); source: E. coli Origami B(DE3) pLysS, purified (Ni-NTA, Mono-Q, SEC); not shown: His6, N-terminal, cleaved
Regarding B3, the binding result in series [1] is recorded as “binds”.

B4: pZIP4-ECD A91T variant (domain or fragment, Pteropus alecto, UniProt L5KLU7 36-322, looked up)
chain: B1 chain with A56T
notes: ZIP4 of Pteropus alecto, extracellular domain, residues 36-322 of ELK11751, with A91T (equivalent to A99T of human ZIP4); source: E. coli Origami B(DE3) pLysS, purified (Ni-NTA, Mono-Q, SEC); not shown: His6, N-terminal, cleaved
For B4, the binding result in series [1] is given as “binds”.

B5: pZIP4-ECD R87C variant (domain or fragment, Pteropus alecto, UniProt L5KLU7 36-322, looked up)
chain: B1 chain with R52C
notes: ZIP4 of Pteropus alecto, extracellular domain, residues 36-322 of ELK11751, with R87C (equivalent to R95C of human ZIP4); source: E. coli Origami B(DE3) pLysS, purified (Ni-NTA, Mono-Q, SEC); not shown: His6, N-terminal, cleaved
Regarding B5, the binding result in series [1] is recorded as “binds”.

B6: hZIP4 (human ZIP4): N261Q (protein)
parent chain: MASLVSLELGLLLAVLVVTATASPPAGLLSLLTSGQGALDQEALGGLLNTLADRVHCANGPCGKCLSVEDALGLGEPEGSGLPPGPVLEARYVARLSAAAVLYLSNPEGTCEDARAGLWASHADHLLALLESPKALTPGLSWLLQRMQARAAGQTPKMACVDIPQLLEEAVGAGAPGSAGGVLAALLDHVRSGSCFHALPSPQYFVDFVFQQHSSEVPMTLAELSALMQRLGVGREAHSDHSHRHRGASSRDPVPLISSSNSSSVWDTVCLSARDVMAAYGLSEQAGVTPEAWAQLSPALLQQQLSGACTSQSRPPVQDQLSQSERYLYGSLATLLICLCAVFGLLLLTCTGCRGVTHYILQTFLSLAVGAVTGDAVLHLTPKVLGLHTHSEEGLSPQPTWRLLAMLAGLYAFFLFENLFNLLLPRDPEDLEDGPCGHSSHSHGGHSHGVSLQLAPSELRQPKPPHEGSRADLVAEESPELLNPEPRRLSPELRLLPYMITLGDAVHNFADGLAVGAAFASSWKTGLATSLAVFCHELPHELGDFAALLHAGLSVRQALLLNLASALTAFAGLYVALAVGVSEESEAWILAVATGLFLYVALCDMLPAMLKVRDPRPWLLFLLHNVGLLGGWTVLLLLSLYEDDITF
As to B6, the “other: transport activity” value in series [2] is given as “decreases”. The localisation_or_trafficking result in series [3] is “no change”.
